Molecular target: immature human CFD (proCFD)

Protein | processing of proCFD (IEF immunoblot after overnight incubation at 37 C) | degree of processing of the proCFD N terminus (targeted mass spectrometry, convertase activity test)
recombinant protease MASP1 (protein) HTVELNNMFGQIQSPGYPDSYPSDSEVTWNITVPDGFRIKLYFMHFNLESSYLCEYDYVKVETEDQVLATFCGRETTDTEQTPGQEVVLSPGSFMSITFRSDFSNEERFTGFDAHYMAVDVDECKEREDEELSCDHYCHNYIGGYYCSCRFGYILHTDNRTCRVECSDNLFTQRTGVITSPDFPNPYPKSSECLYTIELEEGFMVNLQFEDIFDIEDHPEVPCPYDYIKIKVGPKVLGPFCGEKAPEPISTQSHSVLILFHSDNSGENRGWRLSYRAAGNECPELQPPVHGKIEPSQAKYFFKDQVLVSCDTGYKVLKDNVEMDTFQIECLKDGTWSNKIPTCKIVDCRAPGELEHGLITFSTRNNLTTYKSEIKYSCQEPYYKMLNNNTGIYTCSAQGVWMNKVLGRSLPTCLPVCGLPKFSRKLMARIFNGRPAQKGTTPWIAMLSHLNGQPFCGGSLLGSSWIVTAAHCLHQSLDPEDPTLRDSDLLSPSDFKIILGKHWRLRSDENEQHLGVKHTTLHPQYDPNTFENDVALVELLESPVLNAFVMPICLPEGPQQEGAMVIVSGWGKQFLQRFPETLMEIEIPIVDHSTCQKAYAPLKKKVTRDMICAGEKEGGKDACAGDSGGPMVTLNRERGQWYLVGTVSWGDDCGKKDRYGVYSYIHHNKDWIQRVTGVRN | ProCFD treated with MASP1 was not strongly processed (lane 1) | 
recombinant protease MASP3 (protein) HTVELNNMFGQIQSPGYPDSYPSDSEVTWNITVPDGFRIKLYFMHFNLESSYLCEYDYVKVETEDQVLATFCGRETTDTEQTPGQEVVLSPGSFMSITFRSDFSNEERFTGFDAHYMAVDVDECKEREDEELSCDHYCHNYIGGYYCSCRFGYILHTDNRTCRVECSDNLFTQRTGVITSPDFPNPYPKSSECLYTIELEEGFMVNLQFEDIFDIEDHPEVPCPYDYIKIKVGPKVLGPFCGEKAPEPISTQSHSVLILFHSDNSGENRGWRLSYRAAGNECPELQPPVHGKIEPSQAKYFFKDQVLVSCDTGYKVLKDNVEMDTFQIECLKDGTWSNKIPTCKIVDCRAPGELEHGLITFSTRNNLTTYKSEIKYSCQEPYYKMLNNNTGIYTCSAQGVWMNKVLGRSLPTCLPECGQPSRSLPSLVKRIIGGRNAEPGLFPWQALIVVEDTSRVPNDKWFGSGALLSASWILTAAHVLRSQRRDTTVIPVSKEHVTVYLGLHDVRDKSGAVNSSAARVVLHPDFNIQNYNHDIALVQLQEPVPLGPHVMPVCLPRLEPEGPAPHMLGLVAGWGISNPNVTVDEIISSGTRTLSDVLQYVKLPVVPHAECKTSYESRSGNYSVTENMFCAGYYEGGKDTCLGDSGGAFVIFDDLSQRWVVQGLVSWGGPEECGSKQVYGVYTKVSNYVDWVWEQMGLPQSVVEPQVER | proCFD treated with MASP3 was almost completely converted into active CFD and even shows further processed forms (lane 2) | Only the proteases from the MASP family, i.e. L. MASP3 show a successful activation of proCFD
recombinant protease C1R (protein) SIPIPQKLFGEVTSPLFPKPYPNNFETTTVITVPTGYRVKLVFQQFDLEPSEGCFYDYVKISADKKSLGRFCGQLGSPLGNPPGKKEFMSQGNKMLLTFHTDFSNEENGTIMFYKGFLAYYQAVDLDECASRSKSGEEDPQPQCQHLCHNYVGGYFCSCRPGYELQEDTHSCQAECSSELYTEASGYISSLEYPRSYPPDLRCNYSIRVERGLTLHLKFLEPFDIDDHQQVHCPYDQLQIYANGKNIGEFCGKQRPPDLDTSSNAVDLLFFTDESGDSRGWKLRYTTEIIKCPQPKTLDEFTIIQNLQPQYQFRDYFIATCKQGYQLIEGNQVLHSFTAVCQDDGTWHRAMPRCKIKDCGQPRNLPNGDFRYTTTMGVNTYKARIQYYCHEPYYKMQTRAGSRESEQGVYTCTAQGIWKNEQKGEKIPRCLPVCGKPVNPVEQRQRIIGGQKAKMGNFPWQVFTNIHGRGGGALLGDRWILTAAHTLYPKEHEAQSNASLDVFLGHTNVEELMKLGNHPIRRVSVHPDYRQDESYNFEGDIALLELENSVTLGPNLLPICLPDNDTFYDLGLMGYVSGFGVMEEKIAHDLRFVRLPVANPQACENWLRGKNRMDVFSQNMFCAGHPSLKQDACQGDSGGVFAVRDPNTDRWVATGIVSWGIGCSRGYGFYTKVLNYVDWIKKEMEEED | The treatment with C1R resulted in a partial processing/activation (lane 3) | 
recombinant protease C1S (protein) EPTMYGEILSPNYPQAYPSEVEKSWDIEVPEGYGIHLYFTHLDIELSENCAYDSVQIISGDTEEGRLCGQRSSNNPHSPIVEEFQVPYNKLQVIFKSDFSNEERFTGFAAYYVATDINECTDFVDVPCSHFCNNFIGGYFCSCPPEYFLHDDMKNCGVNCSGDVFTALIGEIASPNYPKPYPENSRCEYQIRLEKGFQVVVTLRREDFDVEAADSAGNCLDSLVFVAGDRQFGPYCGHGFPGPLNIETKSNALDIIFQTDLTGQKKGWKLRYHGDPMPCPKEDTPNSVWEPAKAKYVFRDVVQITCLDGFEVVEGRVGATSFYSTCQSNGKWSNSKLKCQPVDCGIPESIENGKVEDPESTLFGSVIRYTCEEPYYYMENGGGGEYHCAGNGSWVNEVLGPELPKCVPVCGVPREPFEEKQRIIGGSDADIKNFPWQVFFDNPWAGGALINEYWVLTAAHVVEGNREPTMYVGSTSVQTSRLAKSKMLTPEHVFIHPGWKLLEVPEGRTNFDNDIALVRLKDPVKMGPTVSPICLPGTSSDYNLMDGDLGLISGWGRTEKRDRAVRLKAARLPVAPLRKCKEVKVEKPTADAEAYVFTPNMICAGGEKGMDSCKGDSGGAFAVQDPNDKTKFYAAGLVSWGPQCGTYGLYTRVKNYVDWIMKTMQENSTPRED | the convertase C1S hardly shows effects (lane 4, like MASP1) | 
